Test results as given in US20190225692A1 (JUNO THERAPEUTICS, published 2019).

B1: modified version of TCR 5 (codon optimized, cysteine modified) (TCR, V domains shown)
V domain 1: AQKITQTQPGMFVQEKEAVTLDCTYDTSDQSYGLFWYKQPSSGEMIFLIYQGSYDEQNATEGRYSLNFQKARKSANLVISASQLGDSAMYFCAMREGTGTSYGKLTFGQGTILTVHP
V domain 2: DVKVTQSSRYLVKRTGEKVFLECVQDMDHENMFWYRQDPGLGLRLIYFSYDVKMKEKGDIPEGYSVSREKKERFSLILESASTNQTSMYLCASSPWGETHQPQHFGDGTRLSILE
B2: TCR 17 (codon optimized, cysteine modified version) (TCR, V domains shown)
V domain 1: AQKITQTQPGMFVQEKEAVTLDCTYDTSDPSYGLFWYKQPSSGEMIFLIYQGSYDQQNATEGRYSLNFQKARKSANLVISASQLGDSAMYFCAMREGRGDKIIFGKGTRLHILP
V domain 2: DVKVTQSSRYLVKRTGEKVFLECVQDMDHENMFWYRQDPGLGLRLIYFSYDVKMKEKGDIPEGYSVSREKKERFSLILESASTNQTSMYLCASSLWGRSNQPQHFGDGTRLSILE
B3: TCR 24 (codon optimized, cysteine modified version) (TCR, V domains shown)
V domain 1: AQKITQTQPGMFVQEKEAVTLDCTYDTSDQSYGLFWYKQPSSGEMIFLIYQGSYDEQNATEGRYSLNFQKARKSANLVISASQLGDSAMYFCAMREGRGDSWGKLQFGAGTQVVVTP
V domain 2: DVKVTQSSRYLVKRTGEKVFLECVQDMDHENMFWYRQDPGLGLRLIYFSYDVKMKEKGDIPEGYSVSREKKERFSLILESASTNQTSMYLCASSPFGRGSYEQYFGPGTRLTVTE
B4: TCR 18 (codon optimized, cysteine modified version) (TCR, V domains shown)
V domain 1: KQEVTQIPAALSVPEGENLVLNCSFTDSAIYNLQWFRQDPGKGLTSLLLIQSSQREQTSGRLNASLDKSSGRSTLYIAASQPGDSATYLCAEGNAGGTSYGKLTFGQGTILTVHP
V domain 2: DVKVTQSSRYLVKRTGEKVFLECVQDMDHENMFWYRQDPGLGLRLIYFSYDVKMKEKGDIPEGYSVSREKKERFSLILESASTNQTSMYLCASSFWGRSNSPLHFGNGTRLTVTE
B5: TCR 23 (codon optimized, cysteine modified version) (TCR, V domains shown)
V domain 1: AQKITQTQPGMFVQEKEAVTLDCTYDTSDQSYGLFWYKQPSSGEMIFLIYQGSYDEQNATEGRYSLNFQKARKSANLVISASQLGDSAMYFCAMSPPGGSARQLTFGSGTQLTVLP
V domain 2: DVKVTQSSRYLVKRTGEKVFLECVQDMDHENMFWYRQDPGLGLRLIYFSYDVKMKEKGDIPEGYSVSREKKERFSLILESASTNQTSMYLCASSPWGQSNQPQHFGDGTRLSILE
B6: modified version of TCR 14 (codon optimized, cysteine modified) (TCR)
TCR alpha: ILNVEQSPQSLHVQEGDSTNFTCSFPSSNFYALHWYRWETAKSPEALFVMTLNGDEKKKGRISATLNTKEGYSYLYIKGSQPEDSATYLCASQTGANNLFFGTGTRLTVIPYIQNPDPAVYQLRDSKSSDKSVCLFTDFDSQTNVSQSKDSDVYITDKCVLDMRSMDFKSNSAVAWSNKSDFACANAFNNSIIPEDTFFPSPESSCDVKLVEKSFETDTNLNFQNLSVIGFRILLLKVAGFNLLMTLRLWSS
TCR beta: DVKVTQSSRYLVKRTGEKVFLECVQDMDHENMFWYRQDPGLGLRLIYFSYDVKMKEKGDIPEGYSVSREKKERFSLILESASTNQTSMYLCASTFWGQRRTEAFFGQGTRLTVVEDLNKVFPPEVAVFEPSEAEISHTQKATLVCLATGFFPDHVELSWWVNGKEVHSGVCTDPQPLKEQPALNDSRYCLSSRLRVSATFWQNPRNHFRCQVQFYGLSENDEWTQDRAKPVTQIVSAEAWGRADCGFTSVSYQQGVLSATILYEILLGKATLYAVLVSALVLMAMVKRKDF
B7: TCR 27 (codon optimized, cysteine modified version) (TCR, V domains shown)
V domain 1: DAKTTQPNSMESNEEEPVHLPCNHSTISGTDYIHWYRQLPSQGPEYVIHGLTSNVNNRMASLAIAEDRKSSTLILHRATLRDAAVYYCILRVPPQSGGYQKVTFGTGTKLQVIP
V domain 2: NAGVTQTPKFQVLKTGQSMTLQCAQDMNHNSMYWYRQDPGMGLRLIYYSASEGTTDKGEVPNGYNVSRLNKREFSLRLESAAPSQTSVYFCASSEFGSLNEKLFFGSGTQLSVLE
B8: TCR 22 (codon optimized, cysteine modified version) (TCR, V domains shown)
V domain 1: GQNIDQPTEMTATEGAIVQINCTYQTSGFNGLFWYQQHAGEAPTFLSYNVLDGLEEKGRFSSFLSRSKGYSYLLLKELQMKDSASYLCAVRARMDSNYQLIWGAGTKLIIKP
V domain 2: DAGVTQSPTHLIKTRGQHVTLRCSPISGHKSVSWYQQVLGQGPQFIFQYYEKEERGRGNFPDRFSARQFPNYSSELNVNALLLGDSALYLCASSRTENYGYTFGSGTRLTVVE
B9: modified version of TCR 7 (codon optimized, cysteine modified) (TCR, V domains shown)
V domain 1: KNQVEQSPQSLIILEGKNCTLQCNYTVSPFSNLRWYKQDTGRGPVSLTIMTFSENTKSNGRYTATLDADTKQSSLHITASQLSDSASYICVVSRDNYGQNFVFGPGTRLSVLP
V domain 2: EPEVTQTPSHQVTQMGQEVILRCVPISNHLYFYWYRQILGQKVEFLVSFYNNEISEKSEIFDDQFSVERPDGSNFTLKIRSTKLEDSAMYFCAITDRTNYGYTFGSGTRLTVVE
B10: TCR 21 (codon optimized, cysteine modified version) (TCR, V domains shown)
V domain 1: AQKITQTQPGMFVQEKEAVTLDCTYDTSDQSYGLFWYKQPSSGEMIFLIYQGSYDEQNATEGRYSLNFQKARKSANLVISASQLGDSAMYFCAMREGRVTGGGNKLTFGTGTQLKVEL
V domain 2: NAGVTQTPKFQVLKTGQSMTLQCAQDMNHNSMYWYRQDPGMGLRLIYYSASEGTTDKGEVPNGYNVSRLNKREFSLRLESAAPSQTSVYFCASRPWGNQNTEAFFGQGTRLTVVE

What was measured:
[1] = molecular target: HPV 16 E6(29-38) peptide in the context of HLA-A02:01 on target cells (human; HPV 16); test: cell-based or functional assay
[2] = molecular target: HPV 16 E7(11-19) peptide in the context of HLA-A02:01 on target cells (human; HPV 16); test: cell-based or functional assay
[3] = molecular target: T1, HLA-A2/E6 (29-38) tetramer (human; HPV 16); test: tetramer flow cytometry; transfected Jurkat-derived cells, CD8+ population
T1 construct: also called E6(29-38) peptide-MHC tetramer; E6(29-38)-loaded tetramer
Description: (§1) For transfection, the CD4+ and CD4+/CD8+ cell mixtures were transiently transfected with TCR-encoding plasmids and 48 hours after transfection, cells were assessed by flow cytometry for (1) binding of the target peptide in the context of an MHC molecule (HLA:A02:01) by staining with an E6(29-38) peptide- or an E7(11-19) peptide-MHC tetramer reagent, and/or (2) CD8+ independent binding of the target by co-staining the tetramer-labeled cells with an anti-CD8 antibody.

[4] = molecular target: T1, HLA-A2/E6 (29-38) tetramer; test: tetramer flow cytometry; transfected 1:1 CD4+ and CD4+/CD8+ Jurkat-derived cells;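 note: cell mixtures transiently transfected with TCR-encoding plasmids, analysed by flow cytometry 48 h later after HLA-A*02:01 E6 tetramer staining combined with anti-CD8 antibody co-staining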
Description: as §1

| Binder | % CD8+/IC IFNγ+; transduced primary CD8+ T cells with T2 cells pulsed with 10 uM E6(29-38) peptide, E:T 10:1, 4 h [1] | % CD8+/IC IFNγ+; transduced primary CD8+ T cells with T2 cells pulsed with 10 uM E7(11-19) peptide (control peptide), E:T 10:1, 4 h [2] | % cells in E6 tet+/CD8+ quadrant [3] | % cells in E6 tet+/CD8- quadrant [3] | % cells in E6 tet-/CD8+ quadrant [3] | % cells in E6 tet-/CD8- quadrant [3] | % cells in E6 tet+/CD8+ quadrant [4] | % cells in E6 tet+/CD8- quadrant [4] | % cells in E6 tet-/CD8+ quadrant [4] | % cells in E6 tet-/CD8- quadrant [4] |
| --- | --- | --- | --- | --- | --- | --- | --- | --- | --- | --- |
| B1 | 43.7% | 7.22% | – | – | – | – | – | – | – | – |
| B2 | – | – | 34.7% | 0.17% | 63.6% | 1.53% | 36.2% | 21.3% | 7.72% | 34.8% |
| B3 | – | – | 29.1% | 0.13% | 66.2% | 4.51% | 55% | 23.5% | 5.56% | 16% |
| B4 | – | – | 50.4% | 0.045% | 47.7% | 1.86% | 23.3% | 3.61% | 12% | 61.1% |
| B5 | – | – | 43.6% | 0.18% | 54.1% | 2.14% | 52.5% | 22.5% | 5.19% | 19.7% |
| B6 | – | – | 38.4% | 0.04% | 59.7% | 1.8% | – | – | – | – |
| B7 | – | – | 24.5% | 0.02% | 73.5% | 1.96% | 15.8% | 3.5% | 20.1% | 60.6% |
| B8 | – | – | 51.2% | 0.14% | 47.3% | 1.38% | – | – | – | – |
| B9 | 70.5% | – | – | – | – | – | – | – | – | – |
| B10 | – | – | 51.6% | 0.22% | 46% | 2.18% | 28.8% | 32.7% | 7.16% | 31.3% |
